Results from article PMC10816394, “Radiosynthesis and Bioevaluation of ^99mTc-Labeled Isocyanide Ubiquicidin 29-41 Derivatives as Potential Agents for Bacterial Infection Imaging” (International Journal of Molecular Sciences, 2024).
No end group written: not given here.

How the values were obtained:
S. aureus-infected mice [1] = system: S. aureus-infected mice; parameters: species or system female Kunming mice; conditions: mouse, in vivo
Procedure: Bacterial infection mouse models were constructed as follows: S. aureus (ATCC 25923) was cultured in a liquid medium at 37 °C for approximately 24 h, washed with PBS (pH 7.4) and diluted to obtain a suspension of 1 × 10^8 CFU/mL. […] The mice were sacrificed with isoflurane anesthesia at 120 min postinjection. […] To evaluate the metabolic properties of [^99mTc]Tc-CN5UBI 29-41, biodistribution studies were carried out in mice infected with S. aureus at 30, 120 and 240 min.

S. aureus-infected mice [2] = test: SPECT imaging in bacterial infection mice; assay type: in vivo; conditions: S. aureus in left forelimb muscle, 30~37 MBq tail vein, imaging at 30, 120 and 240 min p.i., n = 2
Procedure: The bacterial-infected mouse model was generated as follows: 100 μL of bacterial suspension containing approximately 1 × 10^8 CFU/mL (for S. aureus) was injected into the left forelimb muscle of the same mice. […] One hundred microliters of [^99mTc]Tc-CN5UBI 29-41 (30~37 MBq) was injected intravenously into each bacterially infected mouse via the tail vein (n = 2). […] The SPECT/CT images were reconstructed with HiSPECT 3.2.0 software (Bioscan, Washington, DC, USA) and processed with VivoQuant 2.5 software (Invicro, Needham, MA, USA).

[3] = assay type: physicochemical; conditions: pH 7.4
Procedure: The lipophilicities of the ^99mTc-labeled complexes were evaluated by the distribution coefficient. The method for determining the distribution coefficient was as follows: 0.1 mL of the radiolabeled complex (3.7 MBq) was mixed with 0.9 mL of phosphate buffer (0.025 mol/L, pH 7.4) and 1 mL of n-octanol in a 5 mL centrifuge tube. The mixture was shaken on a vortex mixer at room temperature for 3 min and centrifuged at 5000 r/min for 5 min. Aliquots of 0.1 mL of both n-octanol and PBS were collected, and the radioactivity was determined with a γ-counter. The distribution coefficient was calculated as follows: Log D = lg[(counts per minute in n-octanol/counts per minute in PBS)]. Each group of measurements was carried out five times in parallel. The final results are expressed as the log D ± SD.

[4] = system: turpentine-oil-inflamed mice; test: Biodistribution in mice with turpentine-induced abscesses (sterile inflammation); conditions: tail vein injection, 120 min p.i., mean ± SD, n = 5
Procedure: The sterile inflammation mouse model was constructed as follows: turpentine oil (0.1 mL) was injected into the left thigh muscle of female Kunming mice (18–22 g). […] Each mouse was injected with 0.1 mL of [^99mTc]Tc-CN5UBI 29-41 (3.7 MBq/mL) via the tail vein. The mice were sacrificed under anesthesia with 1.5% isoflurane at 120 min postinjection. The organs of interest (the inflamed muscle in the left thigh, normal muscle in the right thigh, blood, heart, liver, lung, kidney, spleen, stomach, bone, small intestine and large intestine) were collected, weighed and measured by a γ-counter. The results are expressed as the percentage of the injected dose per gram of tissue ± standard deviation (%ID/g ± SD). After the mice were sacrificed, the tissues containing the thyroid around the trachea in the neck were collected and measured. The results are expressed as the percentage of the injected dose ± standard deviation (%ID ± SD).

Substance | Abscess/Blood ratio (S. aureus-infected mice [1]) | Abscess/Muscle ratio (target-to-nontarget ratio) (S. aureus-infected mice [1]) | Log D ± SD, [^99mTc][Tc(Ⅰ)]^+ Core [3] | Log D ± SD, [^99mTc][Tc(Ⅴ)N]^2+ Core [3] | other results
[^99mTc]Tc(CO)3-CN9UBI 29-41: ^99mTc complex of ligand CN9UBI 29-41 with the [^99mTc][Tc(I)(CO)3(H2O)3]^+ core (TGRAKRRMQYNRR; also: CN9 chelator, position not given here, 99mTc(CO)3 complex; UniProt P62861 103-115, looked up, fragment) | 0.75 ± 0.12 | 2.60 ± 0.68 | – | – | –
[^99mTc]Tc(CO)3-CN6UBI 29-41: ^99mTc complex of ligand CN6UBI 29-41 with the [^99mTc][Tc(I)(CO)3(H2O)3]^+ core (TGRAKRRMQYNRR; also: CN6 chelator, position not given here, 99mTc(CO)3 complex; UniProt P62861 103-115, looked up, fragment) | 0.73 ± 0.19 | 2.48 ± 0.45 | – | – | –
[^99mTc]Tc-CN5UBI 29-41: ^99mTc complex of ligand CN5UBI 29-41 with the [^99mTc]Tc(I)^+ core (TGRAKRRMQYNRR; also: CN5 chelator, position not given here, 99mTc(I) complex; UniProt P62861 103-115, looked up, fragment) | – | 4.15 ± 0.49 | −2.66 ± 0.02 | – | SPECT image finding at infection site (S. aureus-infected mice [2]): accumulated at the site of bacterial infection; Abscess uptake [4]: 0.73 ± 0.05 %ID/g; Abscess/Blood ratio [4]: 0.59 ± 0.06; Abscess/Muscle ratio (target-to-nontarget ratio) [4]: 2.52 ± 0.22; Blood uptake [4]: 1.28 ± 0.12 %ID/g; Bone uptake [4]: 0.82 ± 0.19 %ID/g; Gallbladder uptake [4]: 0.15 ± 0.04 %ID; Heart uptake [4]: 0.61 ± 0.03 %ID/g; Kidney uptake [4]: 13.05 ± 1.24 %ID/g; Large Intestines uptake [4]: 0.62 ± 0.18 %ID/g
[^99mTc]Tc(CO)3-CN5UBI 29-41: ^99mTc complex of ligand CN5UBI 29-41 with the [^99mTc][Tc(I)(CO)3(H2O)3]^+ core (TGRAKRRMQYNRR; also: CN5 chelator, position not given here, 99mTc(CO)3 complex; UniProt P62861 103-115, looked up, fragment) | 0.67 ± 0.15 | 2.49 ± 0.65 | – | – | –
[^99mTc]Tc(CO)3-CN8UBI 29-41: ^99mTc complex of ligand CN8UBI 29-41 with the [^99mTc][Tc(I)(CO)3(H2O)3]^+ core (TGRAKRRMQYNRR; also: CN8 chelator, position not given here, 99mTc(CO)3 complex; UniProt P62861 103-115, looked up, fragment) | 0.64 ± 0.11 | 2.42 ± 0.37 | – | – | –
[^99mTc]Tc-CN7UBI 29-41: ^99mTc complex of ligand CN7UBI 29-41 with the [^99mTc]Tc(I)^+ core (TGRAKRRMQYNRR; also: CN7 chelator, position not given here, 99mTc(I) complex; UniProt P62861 103-115, looked up, fragment) | 0.56 ± 0.09 | 2.52 ± 0.56 | −2.57 ± 0.03 | – | –
[^99mTc]TcN-CN6UBI 29-41: ^99mTc complex of ligand CN6UBI 29-41 with the [^99mTc][Tc(V)N]^2+ core (TGRAKRRMQYNRR; also: CN6 chelator, position not given here, 99mTc complex with [99mTc][Tc(V)N]2+ core; UniProt P62861 103-115, looked up, fragment) | 0.70 ± 0.15 | 3.32 ± 0.99 | – | −2.65 ± 0.03 | –
[^99mTc]TcN-CN5UBI 29-41: ^99mTc complex of ligand CN5UBI 29-41 with the [^99mTc][Tc(V)N]^2+ core (TGRAKRRMQYNRR; also: CN5 chelator, position not given here, 99mTc complex with [99mTc][Tc(V)N]2+ core; UniProt P62861 103-115, looked up, fragment) | 0.69 ± 0.22 | 2.10 ± 0.80 | – | −2.71 ± 0.03 | –
[^99mTc]TcN-CN9UBI 29-41: ^99mTc complex of ligand CN9UBI 29-41 with the [^99mTc][Tc(V)N]^2+ core (TGRAKRRMQYNRR; also: CN9 chelator, position not given here, 99mTc complex with [99mTc][Tc(V)N]2+ core; UniProt P62861 103-115, looked up, fragment) | 0.70 ± 0.29 | 2.79 ± 0.82 | – | −2.41 ± 0.03 | –
[^99mTc]TcN-CN7UBI 29-41: ^99mTc complex of ligand CN7UBI 29-41 with the [^99mTc][Tc(V)N]^2+ core (TGRAKRRMQYNRR; also: CN7 chelator, position not given here, 99mTc complex with [99mTc][Tc(V)N]2+ core; UniProt P62861 103-115, looked up, fragment) | 0.58 ± 0.12 | 2.47 ± 0.47 | – | −2.58 ± 0.04 | –
[^99mTc]Tc-CN8UBI 29-41: ^99mTc complex of ligand CN8UBI 29-41 with the [^99mTc]Tc(I)^+ core (TGRAKRRMQYNRR; also: CN8 chelator, position not given here, 99mTc complex with [99mTc]Tc(I)+ core; UniProt P62861 103-115, looked up, fragment) | 0.66 ± 0.16 | 2.64 ± 0.65 | −2.54 ± 0.01 | – | –
[^99mTc]Tc(CO)3-CN7UBI 29-41: ^99mTc complex of ligand CN7UBI 29-41 with the [^99mTc][Tc(I)(CO)3(H2O)3]^+ core (TGRAKRRMQYNRR; also: CN7 chelator, position not given here, 99mTc(CO)3 complex; UniProt P62861 103-115, looked up, fragment) | 0.69 ± 0.08 | 2.43 ± 0.49 | – | – | –
[^99mTc]Tc-CN6UBI 29-41: ^99mTc complex of ligand CN6UBI 29-41 with the [^99mTc]Tc(I)^+ core (TGRAKRRMQYNRR; also: CN6 chelator, position not given here, 99mTc(I) complex; UniProt P62861 103-115, looked up, fragment) | 0.75 ± 0.10 | 3.48 ± 0.70 | −2.62 ± 0.03 | – | –
[^99mTc]Tc-CN9UBI 29-41: ^99mTc complex of ligand CN9UBI 29-41 with the [^99mTc]Tc(I)^+ core (TGRAKRRMQYNRR; also: CN9 chelator, position not given here, 99mTc complex with [99mTc]Tc(I)+ core; UniProt P62861 103-115, looked up, fragment) | 0.69 ± 0.04 | 2.62 ± 0.42 | −2.52 ± 0.01 | – | –
[^99mTc]TcN-CN8UBI 29-41: ^99mTc complex of ligand CN8UBI 29-41 with the [^99mTc][Tc(V)N]^2+ core (TGRAKRRMQYNRR; also: CN8 chelator, position not given here, 99mTc complex with [99mTc][Tc(V)N]2+ core; UniProt P62861 103-115, looked up, fragment) | 0.72 ± 0.13 | 2.81 ± 0.55 | – | −2.55 ± 0.03 | –
